Test results from article PMC7654188.

Target: preassembled microtubule filaments (tubulin polymerised with Taxol)
Assay: co-sedimentation; microtubule spin-down assay (Cytoskeleton BK029): 5, 10 and 20 ug of COS1 lysate with or without Taxol-stabilised microtubule, room temperature 30 min, 60% glycerol cushion, 100,000 x g 40 min; pellet blotted with HA tag and alpha-tubulin antibodies

fold microtubule binding relative to WT protein: 2.5 to 4 fold
Substance: HA-tagged CTTNBP2 D570Y (natural protein)
